Measurements: patent US20140037624A1

Key:
[1] = molecular target: human FGFR4 at the cell surface (stably transfected HEK293 and L6 cells; endogenous on human liver cancer cell lines) (human) (UniProt P22455); test: flow cytometry on HEK293 cells stably transfected with hFGFR4, RFU
[2] = molecular target: T1, human FGFR4-Fc chimeric protein (human) (UniProt P22455); test: solid phase binding assay, LD1 on immobilized hFGFR4-Fc, OD 450 nm
T1 sequence: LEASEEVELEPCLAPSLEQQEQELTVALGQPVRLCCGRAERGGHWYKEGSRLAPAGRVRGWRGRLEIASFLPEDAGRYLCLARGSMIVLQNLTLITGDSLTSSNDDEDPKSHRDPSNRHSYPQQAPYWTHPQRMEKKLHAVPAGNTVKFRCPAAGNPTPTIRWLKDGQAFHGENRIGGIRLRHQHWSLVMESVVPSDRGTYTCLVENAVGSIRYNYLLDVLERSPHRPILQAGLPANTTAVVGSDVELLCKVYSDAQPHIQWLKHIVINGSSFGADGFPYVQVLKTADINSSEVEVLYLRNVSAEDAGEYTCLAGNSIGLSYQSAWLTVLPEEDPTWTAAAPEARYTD

[3] = molecular target: human FGFR4 at the cell surface (stably transfected HEK293 and L6 cells; endogenous on human liver cancer cell lines) (human) (UniProt P22455); test: cell-based or functional assay
[4] = molecular target: T2, mouse FGFR4-Fc chimeric protein (mouse) (UniProt Q03142); test: solid phase binding assay, LD1 on immobilized mFGFR4-Fc, OD 450 nm
T2 sequence (looked up): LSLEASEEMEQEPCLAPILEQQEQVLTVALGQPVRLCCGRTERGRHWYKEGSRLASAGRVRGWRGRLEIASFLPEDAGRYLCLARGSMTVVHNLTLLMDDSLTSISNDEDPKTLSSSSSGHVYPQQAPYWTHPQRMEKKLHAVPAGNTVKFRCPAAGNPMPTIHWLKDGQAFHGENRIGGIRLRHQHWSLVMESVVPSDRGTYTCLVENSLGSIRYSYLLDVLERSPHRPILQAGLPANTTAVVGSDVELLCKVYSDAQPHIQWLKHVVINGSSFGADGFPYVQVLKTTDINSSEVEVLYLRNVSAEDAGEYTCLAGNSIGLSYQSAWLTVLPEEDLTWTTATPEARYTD

B1: chimeric LD1 (murine LD1 variable domains with human kappa and human IgG1 constant domains) (antibody, V domains shown)
VH: EVQLQQPGAVLVRPGTSVKLSCKASGYTFTNHWMNWVKQRPGQGLEWIGMIHPSDSETTLDQKFKDKATLTVDKSSSTAYMQLNRPTSEDSAVYYCTRGDISLFDYWGQGTTVTVSS
VL: DIQMTQTTSSLSASLGDRVTITCRTSQDISNFLNWYQQKPDGTFKILISYTSRLHSGVPSRFSGSGSGTDYSLTISTLEQEDFATYFCQQGNALPYTFGGGTKLEIE
EC50 (read off the curve) [1]: 0.5 µg/mL | EC50 (read off the curve) [2]: 0.04 µg/mL | CYP7α1 expression in HEP3B cells with added FGF19 [3]: 67% | CYP7α1 expression in HEP3B cells without added FGF19 [3]: 2 fold | CYP7α1 expression in HUH7 cells in the absence of FGF19 [3]: 3.5 fold | CYP7α1 expression in HUH7 cells in the presence of FGF19 [3]: 2.9 fold | decrease of basal c-Fos expression in JHH5, JHH7 and HUH7 cell lines [3]: 50% | decrease of basal c-Fos expression in the PLC/PRF/5 cell line [3]: 75% | maximum inhibition of colony formation, HUH7 cells [3]: 50% | maximum inhibition of colony formation, JHH5 cells [3]: 26% | maximum inhibition of colony formation, PLC/PRF/5 cells [3]: 82% | EC50 (read off the curve) [4]: 0.04 µg/mL
